Measurements reported in a protein production outcome set (Wang et al. 2014).

Experiment: label from the status in PepcDB records

Sequence	protein production
MSQTPSLAQLQPADAFLRRHLGPDPAEQQAMLAFLGVSTRAELIVQTVPPAIRLNRPLELPAALDEQAALARLRGYAGLNQRWTSLIGMGYYGTVTPSVILRNVLENPGWYTAYTPYQPEIAQGRLEALLNFQQLTIDLTGLDLASASLLDEATAAAEAMALARRVAKARSNRFFVDAHCHPQTVSVLRTRAEAFGFELVVDEPDNLAAHAVFGALLQYPDSRGEIRDLRPLIEALHGQQALACVASDLLALLLLTPPGELGADVVLGSAQRFGVPMGYGGPHAAFFATREGYKRAMPGRIIGVSRDARGNPALRMALQTREQHIRREKANSNICTAQVLLANIASLYAVYHGPQELKRIAQRVQRLTALLAAGLKSKGLRRLNRHFFDTLTYEVGERQAAILERARAARVNLRVVDDRRLALSLDETCDAATLATLFEIFLGAGHGLDVAHLDGGAVADGIPAVLQRTSAYLQHPVFNAHHSETEMLRYLRQLEGKDLALNQAMIPLGSCTMKLNASSEMIPITWPEFAELHPFVPREQAEGYRRMIDELEAWLRAITGFDAICMQPNSGAQGEYAGLLAIRRYHQSRGDSQRDICLIPASAHGTNPASAIMASMRVVIVECDPRGNVDLDDLRLKAAEAGDRLSCLMITYPSTHGVYEEGIGEICEVVHRHGGQVYMDGANLNAQVGLARPADIGADVSHMNLHKTFCIPHGGGGPGMGPIGVKRHLAPFVANHPVIRVEGPNPLNDAVSATPWGSASILPISWMYIAMMGPQLADASEVAILSANYLANRLDGAFPVLYRGRNERVAHECILDLRPLKAQTGITEEDVAKRLMDYGFHAPTMSFPVPGTLMVEPTESESKAELDRFVEAMLSIRAEIGKVESGAWPAEDNPLKRAPHTLADVTGIWQRPYEIAEAVTPSEHARAFKYWPAVNRVDNVYGDRNLFCACVPLDDYR	failed
MVGNVRHYLFYANSSELQQQMMNRKSHFNLSQTTQEWLIGKGYNPEDLEQPGENGDSALMKATREGVDAVVKELIDLGVDINARNNDNNNALWFACFGNHYDLIHLLLAAKINIDNQNDNGATVLMYAASAGKTEVVKLLLQYHPNLYLRNLDDFQAIDFASNVEVLRLLKNATK	failed
MKFFSLADEAEFKSIIISKNKAVDVIGSKLGGQVVSFSDEWFASAENLIQPTAPIRDPTRFVHSGAWYDGWETRRHNEMEYDWVIIKMGVAAAHIIGGEIDTAFFNGNHAPFVSIEALYDEGEEGNIVEDDSRWVEIVEKFECGPSQRHLFVRGNGLTKERFTHIKLKMYPDGGIARFRLYGRVVPPELKTKDHIIDLAYVCNGAVALKYSDQHFGSVDNLLLPGRGHDMSDGWETKRSRQPGHTDWAVIQLGRESSFIEKIIVDTAHFRGNFPQFITVEGCLKESESSENTGEGTWVELVGKSKTGPDKEHVYEIRKSIRVSHVKLTIIPDGGVKRIRVWGY	not failed
MKQKFSSLFVLLVLLLTGLQVSAQSTPKPFDIEQPSLRVFLPAPELATGRAVVACPGGGYSGLAVNHEGYDWAPYFNKQGIALIVLKYRMPKGDRTLPISDAEAAMKMVRDSADVWNLNPNDIGIMGSSAGGHLASTIATHAPEALRPNFQILFYPVITMDKSFTHMGSHDNLLGKDASADLEKEFSNEKQVTKETPRAFIVYSDDDKVVPPANGVNYYLALNKKGVPSVLHIYPTGGHGWGIREDFLYKSEMQNELTSWLRSFKAPRKDAVRVACIGNSITFGAGIRNRSRDSYPSVLARMLGDSYWVKNFGVSARTMLNKGDHPYMNEPAYKNALAFNPNIVVIKLGTNDSKSFNWKYKADFMKDAQTMIDAFKGLPSQPKIYLCYPSKAYLTGDGINDDIISKEIIPMIKKLAKKNDLSVIDLHTAMDGMPELFPDRIHPNEKGAQVMAKAVYQSISTLK	failed
MNFDSYIFDFDGTLIDTTTCHVKATQSAFKRLNLDEPTEQAILHTYHLNLYNNFKALASHELSFYQIEKLIDEYNHCFSNDEIHQSKEYTGISEVLKFLHNQKKKIFVVSNKETLTTQKYLDYLGLSRFITDSLGVCIKNEDKLLCETIQNLIQKHHLMIGKTVYIGDTAQDIKSANQAHVQTCAVTWGAQSAHELLHEDPHYVVNDPEEFLTIL	failed
DEVENLYTQVADNEYLVQGRMLIDEFNEVFETDLHMSDVDTMAGYLITALGTIPDEGEKPSFEVGNIKLTAEEMEGTRLLVLRVHFYDEE	not failed
QKDANASSEFYINKLGQTQELEDQQTYKLLAARVLIRENKVEQSAALLRELGELNDAQKLDRALIEARISAAKNANEVAQNQLRALDLNKLSPSQKSRYYETLAIVAENRKDMIEAVKARIEMDKNLTDVQRHQDNIDKTWALLRSANTGVINNASDEGNAALGGWLTLIKAYNDYIRQPVQLSQALQSWKNAYPNHAAATLFPKELLTLLNFQQTNVSQIGLLLPLSGDGQILGTTIQSGFNDAKGNSTIPVQVFDTSMNSVQDIIAQAKQAGIKTLVGPLLKQNLDVILADPAQIQGMDVLALNATPNSRAIPQLCYYGLSPEDEAESAANKMWNDGVRNPLVAMPQNDLGQRVGNAFNVRWQQLAGTDANIRYYNLPADVTYFVQENNSNTTALYAVASPTELAEMKGYLTNIVPNLAIYASSRASASATNTNTDFIAQMNGVQFSDIPFFKDTNSPQYQKLAKSTGGEYQLMRLYAMGADAWLLINQFNELRQVPGYRLSGLTGILSADTNCNVERDMTWYQYQDGAIVPVAN	failed
MENRAHALAAGLFILLLGVATVMAVKWFSRDSVSYNHYFLVSAGGAVSGLNPEASVRYRGVNVGKVEEIYFDRENIRNIIVRIAVNHNVVLPGDIYAQLASQGITGLTYIELNDDVADAETKPLQNEARIPLRSSLIKTLSDSLEEILKNSNMAIRQISNLLNEQNQTHISSILSHLEQAVQHYDTLTGQLQKGLQTLPQLSSELTSTFKQTRQVMENTSQVLQKLNQQQGLVDNLTQGSLEMTRTLTSLNETGVAITQSAHKLDQLLNLLEDHPQSLVFGKPPALPGPGEPGFSPPQPGK	failed
MFFKQFYDKHLSQASYLIGCQKTGEAMIIDPIRDLSSYIRVADEEGLTITHAAETHIHADFASGIRDVAIKLNANIYVSGESDDTLGYKNMPNHTHFVQHNDDIYVGNIKLKVLHTPGHTPESISFLLTDEGAGAQVPMGLFSGDFIFVGDIGRPDLLEKAVKVEGSSEIGAKQMFKSIESIKDLPDYIQIWPGHGAGSPCGKSLGAIPTSTLGYEKQTNWAFSENNEATFIDKLISDQPAPPHHFAQMKKINQFGMNLYQPYTVYPATNTNRLTFDLRSKEAYHGGHIEGTINIPYDKNFINQIGWYLNYDQEINLIGDYHLVSKATHTLQLIGYDDIAGYQLPQSKIQTRSIHSEDITGNESHILDVRNDNEWNNGHLSQAVHVPHGKLLETDLPFNKNDVIYVHCQSGIRSSIAIGILEHKGYHNIINVNEGYKDIQLS	not failed
MGLQGQLSDVSSDSIPLMLLSLLAVFINHLRSFLLRLTSKSNPNLPVDDVSIASGLANIIVLADQLSLNRLFSYRCGDGGGGGSDCVVCLSKLKEGEEVRKLECRHVFHKKCLEGWLHQFNFTCPLCRSALVSDDCVSKTQRSVGRDLISCFSLH	failed
MGAATRVAPMTAAASSTKAWLMAARPQTLPAGAAPVIVGTGLAVYHGVFAPLPALFALFGALLLQIGTNFANDYYDAVRGADTEDRDGFTRVTAGGLIEPAAVKRAMYATFGLSMVIGLYLVAVGGVPILVVGLASIVAGITYSGGPLPYGYRGLGDLFVFVFFGLVAVAGTYYVQAAAHGGWFPLWIPEGTLPAAAVVAGLPAAGFSTAILVVNNIRDRETDAEAGKHTLAVILGYRLSRIEWSLMAGLGYAIPVVFWLDGYPATVLLPLVTAPLAIAIGRTVWNRTDGEALNPALQRTGKLLFAHSVCFALGFAAPAVI	failed
DSIVEGRTLNVAVSPASPPMLFKSADGKLQGIDLELFSSYCQSRHCKLNITEYAWDGMLGAVASGQADVAFSGISITDKRKKVIDFSEPYYINSFYLVSMANHKITLNNLNELNKYSIGYPRGMAYSDLIKNDLEPKGYYSLSKVKLYPTYNETMADLKNGNLDLAFIEEPVYFTFKNKKKMPIESRYVFKNVDQLGIAFKKGSPVRDDFNLWLKEQGPQKISGIVDSWMK	not failed
ATHTLQLAIGDEPTEGFDPMLGWSHGSYLLLHSPLLKQNEDFSWDSLLLSQYQPSDDGKTWLLTLKPDLKFSDGSPLTAKDVAFTYNNAAASGGKVDMGNFLSAEVIDPLNVRIHLKAPQSTFVNVLGSLGIVSADKYNAKTYAQKPIGAGPYRLVSFQPGQQMIVEANPYYAGNKNDFDKLIFVFLDEDSAFAAAQSGQLGVVRIPPSMAVGSVNNMKLWVRPSVENRGIVFPTTPAGKKDAHGYPIGNDVTADVAIRRAINYAINRQLLADQIMEGHAIPAYTGVQGLPWNNPDSAIKDGDIDKAKQILEQAGWQLNSQGTREKNGLPAKITLWYTSGDTTRRDLAQALRSMLKPIGIDVDLKSGSWETVERNMHANPTLFGWGSLDPMELYHHYSSNAAGVEYYNPGYYKNPMVDKHLQQALDAPTWQQAVPFWQQVDWDGTTGAGIRGDAAWAWLLNIQHTYLANNCVDLGKGTPEIHGSWSLLNSIDSWK	not failed
MPRSQADSALAEAERHLAAGRSQQAREAFRRARLFFHRCADTDGEAIVLVRLGEAELAAGHLASAKEALSDALALLSHETDPSARADALHLMGSLKNAEKNAPERDRLWAEAVSAHRDHGNKAGEARVLRDQAQVAKATGKDDLAFDLFSRAHRLYADLGHSFHEAMILLEIGQLHRAQGRADLAHDALERAADLFRVNGDTLDEGRTRLTLARLLRDLGDKETALRDLTLCAKLFGANGHLGGQAEALIDLARLEAAKAPKAALKMLHQARALAARSGIPSLQTQAASEIARLDQAALKDTP	failed
MHFRLSFISIIYRLLGILLASAFVGWLFDYVLLVMLATSIFLLVWHYHHLFKLINWIWQSKALSPPQAKGVWGYLYDGLYRQVKQQRNKQKQLNEKIRRFRDGAEALPDAALMLSEELTIEWGNKKAQRLLGVRWPDDFGQRIDNLLRAPEFSDYLAHENFEYPCLLVSPIHSDVQLEIRLMAYGSEHVLLLARDISNLQRLEDMRRDFVANVSHELKTPLTVVRGYVEMIQASPEAFDPHWQKAFQTIEGQVSRMDRLVEQLLNLAKVENNSDDEKQCVNMAQLIRTLVDEVTWLNQEKQHQIMLDISTDVSVLGFETELKSACANLLSNAIAYTPPKGCIEVSWRLMGNKAIFSVKDNGDGIKPEHVNRLTERFYRIDRSRSRDTGGSGLGLAIVKHVLHHHQAELIINSHWGQGSEFSIYFDPSTLSNPSR	failed
MASHISLKQLKVFTTITQHKTLTAASDSLFLSKAAVSMALSELEKQIGHHLFDRVNNRLILNQEGQKLLPLADELLNRAKDIESIFDGDQALSGQLRIGASDTIGNQVAPYLLSEFRQQTNHRSQSLFISNSAQICDMLTDYELDIALIEGKTLHPELQSTQFSEDEMCVICAPDYPAAHEGPVNLTELENSEWILREAGSGSREFFMRVVAPRLEHWHEAFQLNTTEALINSVSAGLGLGCLSRLSAEPAIRDGRVKLLDMPLDMKRRFWLLVHKEKYQSPLLKTFIEFCQDWERPTNLPLGNKSAK	failed
MAQSNSRETFSSRLGFILAAAGAAVGLGNIWGFPTQAASNGGGAFLLVYLILIFVVAFPMLVVEMAIGRYGQANPVDSMRSLTSQPAAKKVGGFVGWVGLSVPSAVLAFYSIVGGWIICFLLGAMTDLFGFTAASAWLKGFSVERNLFGTLIFYVLTILIVQGGVKQGIERWSTRLMPALFVLFAVLFIYIMTQQGAWEGLKHYLIPDFEKVWDRKLILAAMGQGFFSLTIGGCSMLIYGSYLSKKENLPKMAMSVTLVDTAVAFIAGLVVLPAMFVAMNKGVQIYAQDGSLLSSDTLVFTVLPLMFDSLGLLGQIFAMVFFLLLTIAALTSSISMLECPVALVGERFNTRRTPTSWVLGGLIALFSVVIVYNFGALFGLVATLATQYLQPTAALMFCLFGGWVWQRDAKMKELQAGFPELQQSLFGKIWPWYVKFVCPVLVATVIWASFG	failed
